Reference: the supplement of paper PMC10126150
± gives the standard deviation of the averaged measurements.

System: ATP
Assay: switch fluorescence ratio, 500 uM ATP over buffer (Cy3 cluster intensity, sum of 5 cycles each) (fold (ratio)); higher = stronger signal-on switching upon ATP binding; sequences stand for … in TCGTCGGCAGCGTCAGATGTGTATAAGAGACAGTTTTTTTTTTTTTTTTTTTTTTTTT…TC
Conditions: aptamer strand: ATP DNA aptamer (quencher-CACCTGGGGGAGTATTGCGGAGGAAGG + anchor), 100 nM annealed; ATP concentration: 500 uM
Method in brief: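 Five buffer/ATP imaging cycles were run on Cy3-labelled switching-strand clusters on a modified Illumina MiSeq flow-cell, with NaOH stripping and re-annealing between cycles. In each cycle, clusters annealed to 100 nM quencher-labelled ATP aptamer were imaged in selection buffer, then after 15 min with 500 uM ATP at 22 °C. Per cluster, the fluorescence ratio is summed target-cycle over summed buffer-cycle Cy3 intensity, averaged per switch-domain sequence. Only clusters within 100-1000 RFU were kept.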
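Also: ATP exposure 15 min at 22 °C before imaging.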

Sequence	switch fluorescence ratio
TAGCCGGCCT	1.05 ± 0.025
TAGCCTATTT	0.975 ± 0.038
TAGCCTTACG	1.123 ± 0.0043
TAGCGAGTAT	1 ± 0.011
TAGCGATGGG	1.01 ± 0.017
TAGCGCTTTA	1.01 ± 0.017
TAGCGGGAGG	1.02 ± 0.024
TAGCGGGGCT	1.04 ± 0.043
TAGCTAGACG	1.01 ± 0.012
TAGCTAGCGT	1.01 ± 0.019
TAGCTGAGAC	1.162 ± 0.006
TAGCTGAGGT	1.03 ± 0.017
TAGCTGCAAA	1.05 ± 0.024
TAGCTGGCTG	0.986 ± 0.043
TAGCTGGGGA	1.01 ± 0.033
TAGCTGGGGG	0.995 ± 0.021
TAGCTTAACA	0.979 ± 0.018
TAGCTTCTCC	1.34 ± 0.033
TAGGAAAGGG	0.997 ± 0.027
TAGGAAGATG	1.02 ± 0.1
TAGGAAGCGT	0.9777 ± 0.0039
TAGGAAGGGT	0.997 ± 0.028
TAGGAGAGAC	0.998 ± 0.057
TAGGAGGCGG	0.958 ± 0.039
TAGGAGGGTG	1.01 ± 0.035

Sequence	switch fluorescence ratio
TAGGAGGTAC	1.01 ± 0.054
TAGGATGAGT	0.99997 ± 0.00035
TAGGATGTCT	1 ± 0.0021
TAGGATTACT	1.02 ± 0.014
TAGGCACAAC	1.15 ± 0.025
TAGGCAGGGG	1.08 ± 0.021
TAGGCCTCGA	0.985 ± 0.026
TAGGCGGTTT	0.9641 ± 0.00067
TAGGCGTGCG	0.976 ± 0.052
TAGGCTAGGG	0.9713 ± 0.0062
TAGGCTCCAA	1.01 ± 0.02
TAGGGAATAG	1.14 ± 0.12
TAGGGACGCC	1.031 ± 0.0046
TAGGGACGGC	1.07 ± 0.095
TAGGGAGAAT	0.992 ± 0.054
TAGGGAGGA	0.98 ± 0.022
TAGGGAGGTG	1.04 ± 0.053
TAGGGATAGC	0.985 ± 0.013
TAGGGATTTC	0.997 ± 0.019
TAGGGCACGA	0.97 ± 0.08
TAGGGCAGGT	1.01 ± 0.036
TAGGGCATCA	0.987 ± 0.042
TAGGGCTGCA	1.06 ± 0.079
TAGGGGAAGG	1.03 ± 0.05
TAGGGGACCG	0.991 ± 0.017

Sequence	switch fluorescence ratio
TAGGGGAGAC	1.06 ± 0.047
TAGGGGAGGT	1.01 ± 0.016
TAGGGGAGTG	1.02 ± 0.035
TAGGGGATCA	0.9839 ± 0.0036
TAGGGGCAGT	1.09 ± 0.14
TAGGGGGCTT	1.01 ± 0.018
TAGGGGGGTA	0.982 ± 0.035
TAGGGGGGTC	1 ± 0.066
TAGGGGGGTT	1 ± 0.04
TAGGGGTCCT	1.01 ± 0.046
TAGGGGTTAT	0.995 ± 0.015
TAGGGTATGT	1.01 ± 0.018
TAGGGTCGG	1 ± 0.053
TAGGGTCGT	0.9932 ± 0.0024
TAGGGTGGGA	0.99 ± 0.025
TAGGGTGGGC	0.954 ± 0.028
TAGGGTTAAT	1.03 ± 0.038
TAGGGTTGGG	1 ± 0.031
TAGGTAAGGG	0.99 ± 0.026
TAGGTAATTT	0.968 ± 0.041
TAGGTCAATC	1.026 ± 0.0029
TAGGTCCTTG	0.9851 ± 0.0061
TAGGTCGGGA	0.976 ± 0.02
TAGGTCTACG	1.02 ± 0.019
TAGGTCTTGC	1.01 ± 0.033

Sequence	switch fluorescence ratio
TAGGTGAGTT	1.04 ± 0.047
TAGGTGCCGT	1 ± 0.076
TAGGTGCTTC	1.029 ± 0.0099
TAGGTGGTCC	0.9892 ± 0.0014
TAGGTGGTGC	0.986 ± 0.045
TAGGTGTATG	1.01 ± 0.033
TAGGTGTGTT	0.981 ± 0.019
TAGGTGTTGG	1.02 ± 0.007
TAGGTGTTTG	0.999 ± 0.018
TAGGTTCGAG	0.985 ± 0.011
TAGGTTGAAT	0.984 ± 0.019
TAGGTTGCGA	0.996 ± 0.021
TAGGTTTGAA	0.9922 ± 0.0018
TAGGTTTGGT	1.018 ± 0.0063
TAGGTTTGTG	0.993 ± 0.03
TAGTACAGGC	1.06 ± 0.015
TAGTACTTTA	1.046 ± 0.0071
TAGTAGATTA	0.982 ± 0.012
TAGTAGTGAG	0.985 ± 0.013
TAGTATAGGA	0.973 ± 0.056
TAGTATGTGT	0.9576 ± 0.0043
TAGTCATGAG	0.981 ± 0.017
TAGTCATTGA	1.012 ± 0.0021
TAGTCGAGGG	0.971 ± 0.024
TAGTCGCGTA	1.05 ± 0.035

Sequence	switch fluorescence ratio
TAGTCTCTTG	1 ± 0.015
TAGTGAATTT	1 ± 0.07
TAGTGACAGC	1.04 ± 0.014
TAGTGAGGCG	0.926 ± 0.0095
TAGTGATGTT	0.983 ± 0.018
TAGTGATTGC	0.988 ± 0.025
TAGTGCAAGA	1.0334 ± 0.00052
TAGTGCCGGG	1.06 ± 0.07
TAGTGGACGG	0.986 ± 0.034
TAGTGGCTTA	0.98 ± 0.042
TAGTGGGCGA	1.01 ± 0.067
TAGTGGGGCA	0.966 ± 0.033
TAGTGGGGGA	0.995 ± 0.015
TAGTGGTCCA	0.98 ± 0.03
TAGTGTGGGC	0.999 ± 0.017
TAGTGTTTCT	1.01 ± 0.018
TAGTGTTTGT	0.979 ± 0.017
TAGTGTTTTT	0.9775 ± 0.0093
TAGTTAGGGG	1.01 ± 0.058
TAGTTATGTG	0.9513 ± 0.0043
TAGTTCAGGA	1.05 ± 0.036
TAGTTCGTTT	0.998 ± 0.016
TAGTTGAGTT	0.982 ± 0.029
TAGTTGATAA	0.996 ± 0.018
TAGTTGGAAG	1.021 ± 0.0048

Sequence	switch fluorescence ratio
TAGTTGGATG	1 ± 0.038
TAGTTGGGCT	0.961 ± 0.032
TAGTTGGGGA	1.03 ± 0.033
TAGTTGTTGT	0.981 ± 0.049
TAGTTTAATT	0.998 ± 0.015
TAGTTTCGGG	0.997 ± 0.05
TAGTTTTCTG	0.982 ± 0.017
TAGTTTTGTG	1.01 ± 0.062
TAGTTTTTGT	1.01 ± 0.049
TATAAAAACT	1.01 ± 0.021
TATAAAAGGG	1.03 ± 0.078
TATAAAATCT	1.02 ± 0.082
TATAAACCGC	1.22 ± 0.11
TATAAAGAGC	1.08 ± 0.081
TATAAAGGGA	1.04 ± 0.029
TATAAAGTGG	1.03 ± 0.022
TATAAATGGC	1.01 ± 0.029
TATAAATGTG	0.978 ± 0.027
TATAAATTGG	1 ± 0.032
TATAACCTGT	1.015 ± 0.0089
TATAACTATT	0.999 ± 0.042
TATAACTTAA	1.03 ± 0.026
TATAAGAAAA	0.978 ± 0.013
TATAAGACAA	1.02 ± 0.022
TATAAGCACG	1.096 ± 0.0066

Sequence	switch fluorescence ratio
TATAAGGCGC	0.949 ± 0.032
TATAAGGGGA	1 ± 0.039
TATAAGGTCC	0.98 ± 0.019
TATAAGTACA	1.38 ± 0.04
TATAAGTACG	1.27 ± 0.016
TATAAGTAGT	0.956 ± 0.011
TATAAGTTAT	0.993 ± 0.029
TATAAGTTTG	0.999 ± 0.015
TATAATAGCT	1.02 ± 0.023
TATAATATCG	0.961 ± 0.015
TATAATATTT	1 ± 0.021
TATAATCGGG	0.989 ± 0.015
TATAATTGGG	0.9921 ± 0.0015
TATAATTTTT	1.03 ± 0.074
TATACAACGA	1.03 ± 0.021
TATACAATTG	1.01 ± 0.017
TATACACATT	1.02 ± 0.035
TATACAGAGG	0.983 ± 0.032
TATACGAATT	1.02 ± 0.074
TATACGGAAG	1.02 ± 0.046
TATAGACTTA	0.994 ± 0.026
TATAGAGATG	1.01 ± 0.036
TATAGCATCT	1.047 ± 0.01
TATAGCCCGT	1.02 ± 0.016
TATAGCGGGG	1.02 ± 0.015

Sequence	switch fluorescence ratio
TATAGGCGCT	0.994 ± 0.035
TATAGGCGGT	1.12 ± 0.2
TATAGGGGTT	1.02 ± 0.061
TATAGGTCAG	0.985 ± 0.011
TATAGGTGCG	0.9891 ± 0.0049
TATAGGTTT	1.01 ± 0.02
TATAGTATTG	0.9861 ± 0.0087
TATAGTGGCC	0.998 ± 0.022
TATAGTGGCG	1.02 ± 0.051
TATAGTTCGG	1.01 ± 0.013
TATATAAAGA	1.03 ± 0.035
TATATAAGAT	1 ± 0.058
TATATAATTT	0.987 ± 0.012
TATATACGGG	1.05 ± 0.032
TATATAGGGA	0.981 ± 0.026
TATATATCTC	0.9917 ± 0.0089
TATATCAGTC	1.02 ± 0.058
TATATCGGCT	1.03 ± 0.023
TATATCTAAA	0.973 ± 0.044
TATATGACTT	1 ± 0.012
TATATGAGAT	1.01 ± 0.017
TATATGGAAG	0.984 ± 0.03
TATATGGGAT	1.006 ± 0.0035
TATATGGGTA	0.982 ± 0.057
TATATGTCGT	0.99 ± 0.01
